According to publication PMC9881204, “Robust Covalent Aptamer Strategy Enables Sensitive Detection and Enhanced Inhibition of SARS-CoV-2 Proteins”:

Legend:
[1] = target: T1, SARS-CoV-2 nucleocapsid protein (NP) (SARS-CoV-2, UniProt P0DTC9 1-419); assay: SPR; Kd value only in Fig 3a; about 10-fold weaker than antibodies; SPR: PBS + 5 mM MgCl2, 300 mM NaCl, 400 nM BLib, 2 ug/mL salmon sperm DNA, 25 C; flow cytometry in binding buffer, RT; neutralization in 10% FBS, 37 C; cross-linking in PBS pH 7.4 (SI: HEPES), RT; conditions: protein: commercial; tags: His; chain copies: 2; label: 3' biotin
[2] = target: T1, SARS-CoV-2 nucleocapsid protein (NP); assay: SPR; value only in Fig 3a; covalent; SPR: PBS + 5 mM MgCl2, 300 mM NaCl, 400 nM BLib, 2 ug/mL salmon sperm DNA, 25 C; flow cytometry in binding buffer, RT; neutralization in 10% FBS, 37 C; cross-linking in PBS pH 7.4 (SI: HEPES), RT; conditions: protein: commercial; tags: His; chain copies: 2; label: 3' biotin
[3] = target: T2, SARS-CoV-2 spike RBD, wild type (SARS-CoV-2 (wild type), UniProt P0DTC2 319-541); assay: competition with ACE2-coated beads, flow cytometry; 10% FBS, 37 C; SPR: PBS + 5 mM MgCl2, 300 mM NaCl, 400 nM BLib, 2 ug/mL salmon sperm DNA, 25 C; flow cytometry in binding buffer, RT; neutralization in 10% FBS, 37 C; cross-linking in PBS pH 7.4 (SI: HEPES), RT; conditions: protein: commercial
[4] = target: T2, SARS-CoV-2 spike RBD, wild type; assay: flow cytometry, RBD-coated Ni beads; room temperature; apparent (covalent cross-link); SPR: PBS + 5 mM MgCl2, 300 mM NaCl, 400 nM BLib, 2 ug/mL salmon sperm DNA, 25 C; flow cytometry in binding buffer, RT; neutralization in 10% FBS, 37 C; cross-linking in PBS pH 7.4 (SI: HEPES), RT; conditions: protein: commercial
[5] = target: T2, SARS-CoV-2 spike RBD, wild type; assay: flow cytometry, RBD-coated Ni beads; room temperature; SPR: PBS + 5 mM MgCl2, 300 mM NaCl, 400 nM BLib, 2 ug/mL salmon sperm DNA, 25 C; flow cytometry in binding buffer, RT; neutralization in 10% FBS, 37 C; cross-linking in PBS pH 7.4 (SI: HEPES), RT; conditions: protein: commercial

B1: B15 (ssDNA)
DNA: GCTGGATGTTCATGCTGGCAAAATTCCTTAGGGGCACCGTTACTTTGACACATCCAGCTTTTTTTT
[1]
  binding result: binds

B2: NHS-B15 (ssDNA)
DNA: B1 DNA
modifications: 5' NH2 conjugated to disuccinimidyl suberate (NHS ester)
[2]
  binding result: binds

## ATTACCGATGGCTTGTTTGTAATGTAGGGTTCCGTCGGAT (ssDNA, 5' NH2 conjugated to disuccinimidyl suberate (NHS ester)) [NHS-RApt (CRApt)]
[3]
  IC50: 0.42 nM
[4]
  Kd: 0.24 nM

## ATTACCGATGGCTTGTTTGTAATGTAGGGTTCCGTCGGAT (ssDNA) [RApt]
[5]
  Kd: 5.91 nM

B3: B61 (ssDNA)
DNA: GCTGGATGTTGACCTTTACAGATCGGATTCTGTGGGGCGTTAAACTGACACATCCAGCTTTTTTTT
[1]
  binding result: binds

B4: NHS-B61 (ssDNA)
DNA: B3 DNA
modifications: 5' NH2 conjugated to disuccinimidyl suberate (NHS ester)
[2]
  binding result: binds
